pKd: −log10 of the molar value.
The substances below were run against CD4-IgG2 (UniProt P01730) (assay: BLI).

| Substance | pKd | koff [s⁻¹] | kon [M⁻¹ s⁻¹] |
| --- | --- | --- | --- |
| HIV-1 clade B YU2 gp120 extended core (Coree) (domain or fragment) | 9.92 | 5.9e-05 | 474000 |
| HIV-1 clade B YU2 gp120 glycoprotein, ΔV1/V2 (from UniProt P35961 32-498) (natural protein) | 9.47 | 5.4e-05 | 178000 |
| HIV-1 clade B YU2 gp120 glycoprotein, ΔV3 (from UniProt P35961 32-498) (natural protein) | 9.04 | 0.00015 | 160000 |

Reference: article PMC5479570
